Values quoted from earlier work in article PMC10249258.

Target: CD155 (Homo sapiens) (UniProt P15151)
Chain of UniProt P15151 (P15151 21-343): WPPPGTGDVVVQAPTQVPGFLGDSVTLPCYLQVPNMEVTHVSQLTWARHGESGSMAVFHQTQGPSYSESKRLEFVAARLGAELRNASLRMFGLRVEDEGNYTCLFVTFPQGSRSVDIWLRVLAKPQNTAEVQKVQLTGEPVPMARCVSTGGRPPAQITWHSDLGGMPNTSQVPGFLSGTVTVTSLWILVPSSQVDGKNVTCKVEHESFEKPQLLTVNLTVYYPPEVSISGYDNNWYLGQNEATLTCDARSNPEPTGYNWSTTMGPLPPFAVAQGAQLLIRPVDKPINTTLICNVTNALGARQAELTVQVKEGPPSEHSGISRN

Substance: TIGIT (from UniProt Q495A1)
- Kd: 2 nM
